# Read-outs that look alike come from different tables or passages of the source. Marks after values point to notes of the source that are not given here.
# Experiments:
# [1] = orthogonalized contingency lattice analysis of AERS reports, reference condition rhabdomyolysis; conditions: for Z (z-score, rhabdomyolysis vs non-rhabdomyolysis randomized datasets): * = significant at Bonferroni-corrected 5% level (|z| > 12); for Nrhabdo (subset size based on the rhabdomyolysis dataset): records listing the drug(s) and excluding the other drugs, NR=11,773
# Method: As a consequence, it should be noted that all of these subsets are mutually exclusive, with no patient appearing in more than one subset.
# The results obtained from the orthogonalized contingency lattice just described are analyzed exactly as in the case of the basic contingency lattice described previously.
# As before, significance is assessed using the Bonferroni-corrected z-score analysis described earlier herein. The primary difference between the results obtained with the original contingency lattice construction and those obtained with the orthogonalized construction lies in the fact that the orthogonalized patient subsets are mutually exclusive.
# [2] = human
# [3] = two-way interaction analysis of AERS records, Infliximab and Methotrexate with pulmonary fibrosis; set-up: species or system patients; conditions: records listing both drugs vs 100 random samples of each reference population; FIG. 6
# From the text: In the following description, let N denote the size of the first subset listed above—i.e., the total number of records in the available database listing both drugs. The interaction analysis considered here begins by computing NX, the number of times that Reaction X appears in this first record subset, and the objective of the analysis is to provide reference numbers to answer the following questions:
# Each of these questions defines a collection of random reference sets that may be used to provide answers. Specifically, M random samples, each of size N, are drawn from the reference population defined by each of these questions (i.e., Drug A alone, Drug B alone, and neither drug), and the number of records in each random sample that also lists Reaction X is recorded.
# [4] = N=898 tuberculosis patients vs 200 random samples; Bonferroni-corrected 5% threshold; FIG. 7
# [5] = reaction: antinuclear antibody positive
# [6] = reaction: crohn's disease aggravated
# [7] = reaction: disseminated tuberculosis
# [8] = reaction: dna antibody nos positive
# [9] = reaction: drug withdrawal syndrome
# [10] = reaction: infusion related reaction
# [11] = reaction: pharmaceutical product complaint
# [12] = reaction: pneumocystis carinii pneumonia
# [13] = reaction: pulmonary tuberculosis
# [14] = reaction: rheumatoid arthritis aggravated
# [15] = reaction: systemic lupus erythematosus
molecule,measurement,setting,value
"COC(=O)[C@H](c1ccccc1Cl)N1CCc2sccc2C1 [Case P, clopidogrel bisulfate]",Nref^+ (maximum subset size from the 200 randomly generated non-rhabdomyolysis datasets),[1],169
same,Nref^− (minimum subset size from the 200 randomly generated non-rhabdomyolysis datasets),[1],109
same,PChebyshev (probability derived from the Chebyshev inequality),[1],2.20 × 10^−1
same,"Z (z-score, rhabdomyolysis vs non-rhabdomyolysis randomized datasets)",[1],2
same,Nrhabdo (subset size based on the rhabdomyolysis dataset),[1],163
same,Nref^+ (maximum subset size from the 200 randomly generated non-rhabdomyolysis datasets),[2],177
same,Nref^− (minimum subset size from the 200 randomly generated non-rhabdomyolysis datasets),[2],114
same,Nrhabdo (subset size based on the rhabdomyolysis dataset),[2],465
same,PChebyshev (probability derived from the Chebyshev inequality),[2],1.43 × 10^−3
same,association with rhabdomyolysis (in words),[2],significant at the Bonferroni-corrected 5%
same,"z (z-score, rhabdomyolysis vs non-rhabdomyolysis datasets)",[2],26*
"CN(Cc1cnc2nc(N)nc(N)c2n1)c1ccc(C(=O)N[C@@H](CCC(=O)O)C(=O)O)cc1 [Methotrexate, methotrexate]",drug interaction with respect to pulmonary fibrosis (in words),[3],responsible for the large number of cases seen when both drugs are present
"Cc1ccc(C)c(OCCCC(C)(C)C(=O)O)c1 [Case L, gemfibrozil]",Nref^+ (maximum subset size from the 200 randomly generated non-rhabdomyolysis datasets),[1],55
same,Nref^− (minimum subset size from the 200 randomly generated non-rhabdomyolysis datasets),[1],21
same,PChebyshev (probability derived from the Chebyshev inequality),[1],5.36 × 10^−4
same,association with rhabdomyolysis (in words),[1],only weak evidence
same,"Z (z-score, rhabdomyolysis vs non-rhabdomyolysis randomized datasets)",[1]; listed as L BP,43*
same,"Z (z-score, rhabdomyolysis vs non-rhabdomyolysis randomized datasets)",[1]; listed as Lopid,43
same,Nrhabdo (subset size based on the rhabdomyolysis dataset),[1],306
same,Nref^+ (maximum subset size from the 200 randomly generated non-rhabdomyolysis datasets),[2],72
same,Nref^− (minimum subset size from the 200 randomly generated non-rhabdomyolysis datasets),[2],33
same,Nrhabdo (subset size based on the rhabdomyolysis dataset),[2],2982
same,PChebyshev (probability derived from the Chebyshev inequality),[2],6.16 × 10^−6
infliximab,number of adverse events that exceed the Bonferroni-corrected 5% significance threshold,AERS,365
same,Uab,designation: bone & joint tuberculosis,1.09 × 10^5
same,Uab,designation: bone amp joint tuberculosis,1.34 × 10^6
same,Uab,designation: disseminated tuberculosis,6.22 × 10^117
same,Uab,designation: lymph node tuberculosis,1.57 × 10^8
same,Uab,designation: lymph node tuberculosis nos,4.98 × 10^15
same,Uab,designation: peritoneal tuberculosis,8.61 × 10^9
same,Uab,designation: pulmonary tuberculosis,1.11 × 10^109
same,Uab,designation: spleen tuberculosis,1.47 × 10^12
same,Uab,designation: tuberculosis,1.18 × 10^74
same,Uab,designation: tuberculosis gastrointestinal nos,2.85 × 10^10
same,Uab,designation: tuberculosis nos,>10^308
same,Uab,designation: tuberculosis reactivated,3.40 × 10^6
same,NAB,[5],65
same,RAB,[5],12.93
same,log10 UAB (Statistical Unexpectedness),[5],51.53
same,NAB,reaction: basal cell carcinoma,88
same,RAB,reaction: basal cell carcinoma,21.17
same,log10 UAB (Statistical Unexpectedness),reaction: basal cell carcinoma,92.07
same,NAB,reaction: crohn's disease,60
same,RAB,reaction: crohn's disease,11.26
same,log10 UAB (Statistical Unexpectedness),reaction: crohn's disease,43.74
same,NAB,[6],45
same,RAB,[6],22.02
same,log10 UAB (Statistical Unexpectedness),[6],48.51
same,NAB,[7],93
same,RAB,[7],30.00
same,log10 UAB (Statistical Unexpectedness),[7],117.79
same,NAB,[8],59
same,RAB,[8],24.01
same,log10 UAB (Statistical Unexpectedness),[8],66.39
same,NAB,[9],2
same,RAB,[9],0.02
same,log10 UAB (Statistical Unexpectedness),[9],44.68
same,NAB,reaction: flushing,254
same,RAB,reaction: flushing,4.37
same,log10 UAB (Statistical Unexpectedness),reaction: flushing,83.41
same,NAB,[10],63
same,RAB,[10],19.32
same,log10 UAB (Statistical Unexpectedness),[10],62.93
same,NAB,reaction: listeriosis,41
same,RAB,reaction: listeriosis,30.26
same,log10 UAB (Statistical Unexpectedness),reaction: listeriosis,52.60
same,NAB,reaction: lupus-like syndrome,179
same,RAB,reaction: lupus-like syndrome,27.45
same,log10 UAB (Statistical Unexpectedness),reaction: lupus-like syndrome,215.11
same,NAB,reaction: medication error,17
same,RAB,reaction: medication error,0.07
same,log10 UAB (Statistical Unexpectedness),reaction: medication error,75.78
same,NAB,[11],6
same,RAB,[11],0.05
same,log10 UAB (Statistical Unexpectedness),[11],41.69
same,NAB,[12],66
same,RAB,[12],9.58
same,log10 UAB (Statistical Unexpectedness),[12],43.17
same,NAB,reaction: pneumonia nos,369
same,RAB,reaction: pneumonia nos,2.92
same,log10 UAB (Statistical Unexpectedness),reaction: pneumonia nos,71.42
same,NAB,[13],99
same,RAB,[13],23.31
same,log10 UAB (Statistical Unexpectedness),[13],109.04
same,NAB,reaction: pyrexia,596
same,RAB,reaction: pyrexia,1.80
same,log10 UAB (Statistical Unexpectedness),reaction: pyrexia,41.44
same,RAB,reaction: rhabdomyolysis,0.08
same,log10 UAB (Statistical Unexpectedness),reaction: rhabdomyolysis,58.33
same,NAB,[14],60
same,RAB,[14],12.27
same,log10 UAB (Statistical Unexpectedness),[14],46.14
same,NAB,reaction: rigors,252
same,RAB,reaction: rigors,2.65
same,log10 UAB (Statistical Unexpectedness),reaction: rigors,41.86
same,NAB,reaction: sepsis nos,268
same,RAB,reaction: sepsis nos,3.28
same,log10 UAB (Statistical Unexpectedness),reaction: sepsis nos,61.87
same,NAB,[15],192
same,RAB,[15],11.24
same,log10 UAB (Statistical Unexpectedness),[15],137.84
same,NAB,reaction: tuberculosis,64
same,RAB,reaction: tuberculosis,25.34
same,log10 UAB (Statistical Unexpectedness),reaction: tuberculosis,74.07
same,NAB,reaction: tuberculosis nos,275
same,RAB,reaction: tuberculosis nos,29.00
same,log10 UAB (Statistical Unexpectedness),reaction: tuberculosis nos,>308.00
same,association with tuberculosis by orthogonalized lattice analysis (in words),[4],only strong positive association with tuberculosis
